Laboratory results from patent US20250325630A1, “HOMODIMER FUSION PROTEINS FOR TREATING ATOPIC DERMATITIS” (Intervet Inc., priority 2021, published 2025).

B1: cIL-4Rα-cIgGB-Fc-H (Fc fusion)
chain: VKVLHEPSCFSDYISTSVCQWKMDHPTNCSAELRLSYQLDFMGSENHTCVPENREDSVCVCSMPIDDAVEADVYQLDLWAGQQLLWSGSFQPSKHVKPRTPGNLTVHPNISHTWLLMWTNPYPTENHLHSELTYMVNVSNDNDPEDFKVYNVTYMGPTLRLAASTLKSGASYSARVRAWAQTYNSTWSDWSPSTTWLNYYEPWEQHLPPKRENGRVPRPPDCPKCPAPEMLGGPSVFIFPPKPKDTLLIARTPEVTCVVVDLDPEDPEVQISWFVDGKQMQTAKTQPREEQFNGTYRVVSVLPIGHQDWLKGKQFTCKVNNKALPSPIERTISKARGQAHQPSVYVLPPSREELSKNTVSLTCLIKDFFPPDIDVEWQSNGQQEPESKYRTTPPQLDEDGSYFLYSKLSVDKSRWQRGDTFICAVMHEALHHHYTQESLSHSPGK
notes: Homodimer; also called cIL-4Rα-cFc-H; cIL-4Rα-cFc-NH
B2: cIL-4Rα-cIgGB-Fc-YTE (Fc fusion)
chain: VKVLHEPSCFSDYISTSVCQWKMDHPTNCSAELRLSYQLDFMGSENHTCVPENREDSVCVCSMPIDDAVEADVYQLDLWAGQQLLWSGSFQPSKHVKPRTPGNLTVHPNISHTWLLMWTNPYPTENHLHSELTYMVNVSNDNDPEDFKVYNVTYMGPTLRLAASTLKSGASYSARVRAWAQTYNSTWSDWSPSTTWLNYYEPWEQHLPPKRENGRVPRPPDCPKCPAPEMLGGPSVFIFPPKPKDTLYITREPEVTCVVVDLDPEDPEVQISWFVDGKQMQTAKTQPREEQFNGTYRVVSVLPIGHQDWLKGKQFTCKVNNKALPSPIERTISKARGQAHQPSVYVLPPSREELSKNTVSLTCLIKDFFPPDIDVEWQSNGQQEPESKYRTTPPQLDEDGSYFLYSKLSVDKSRWQRGDTFICAVMHEALHNHYTQESLSHSPGK
notes: Homodimer; also called cIL-4Rα-cFc-YTE
B3: cIL-13Rα1-cIgGB-Fc (Fc fusion)
chain: GGVAAPTETQPPVTNLSVSVENLCTVIWTWDPPEGASPNCTLRYFSHFDNKQDKKIAPETHRSKEVPLNERICLQVGSQCSTNESDNPSILVEKCTPPPEGDPESAVTELQCVWHNLSYMKCTWLPGRNTSPDTNYTLYYWHSSLGKILQCEDIYREGQHIGCSFALTNLKDSSFEQHSVQIVVKDNAGKIRPSFNIVPLTSHVKPDPPHIKRLFFQNGNLYVQWKNPQNFYSRCLSYQVEVNNSQTETNDIFYVEEAKCQNSEFEGNLEGTICFMVPGVLPDTLNTVRIRVRTNKLCYEDDKLWSNWSQAMSIGENTDPTPKRENGRVPRPPDCPKCPAPEMLGGPSVFIFPPKPKDTLLIARTPEVTCVVVDLDPEDPEVQISWFVDGKQMQTAKTQPREEQFNGTYRVVSVLPIGHQDWLKGKQFTCKVNNKALPSPIERTISKARGQAHQPSVYVLPPSREELSKNTVSLTCLIKDFFPPDIDVEWQSNGQQEPESKYRTTPPQLDEDGSYFLYSKLSVDKSRWQRGDTFICAVMHEALHNHYTQESLSHSPGK
notes: Homodimer; also called cIL-13Rα1-cFc; cIL13Rα1-cFc
B4: cIL-13Rα1-cIgGB-Fc-YTE (Fc fusion)
chain: GGVAAPTETQPPVTNLSVSVENLCTVIWTWDPPEGASPNCTLRYFSHFDNKQDKKIAPETHRSKEVPLNERICLQVGSQCSTNESDNPSILVEKCTPPPEGDPESAVTELQCVWHNLSYMKCTWLPGRNTSPDTNYTLYYWHSSLGKILQCEDIYREGQHIGCSFALTNLKDSSFEQHSVQIVVKDNAGKIRPSFNIVPLTSHVKPDPPHIKRLFFQNGNLYVQWKNPQNFYSRCLSYQVEVNNSQTETNDIFYVEEAKCQNSEFEGNLEGTICFMVPGVLPDTLNTVRIRVRTNKLCYEDDKLWSNWSQAMSIGENTDPTPKRENGRVPRPPDCPKCPAPEMLGGPSVFIFPPKPKDTLYITREPEVTCVVVDLDPEDPEVQISWFVDGKQMQTAKTQPREEQFNGTYRVVSVLPIGHQDWLKGKQFTCKVNNKALPSPIERTISKARGQAHQPSVYVLPPSREELSKNTVSLTCLIKDFFPPDIDVEWQSNGQQEPESKYRTTPPQLDEDGSYFLYSKLSVDKSRWQRGDTFICAVMHEALHNHYTQESLSHSPGK
notes: Homodimer; also called cIL-13Rα1-cFc-YTE
B5: cIL-13Rα2-cIgGB-Fc-YD (Fc fusion)
chain: SMLSNAEIKVNPPQDFEIVDPGYLGYLSLQWQPPLFPDNFKECTIEYELKYRNIDSENWKTIITKNLHYKDGFDLNKGIEAKINTLLPAQCTNGSEVRSSWAETTYWTSPQGNRETKIQDMDCVYYNWQYLVCSWKPGMGVHFDTNYQLFYWYEGLDHSAECTDYIKVNGKNMGCRFPYLESSDYKDFYICVNGSSESQPIRPSYFIFQLQNIVKPMPPDYLSLTVKNSEEINLKWNMPKGPIPAKCFIYEIEFTEDGTTWVTTTVENEIQITRTSNESQKLCFLVRSKVNIYCSDDGIWSEWSDEQCWKGDIWKETPKRENGRVPRPPDCPKCPAPEMLGGPSVFIFPPKPKDTLYIARDPEVTCVVVDLDPEDPEVQISWFVDGKQMQTAKTQPREEQFNGTYRVVSVLPIGHQDWLKGKQFTCKVNNKALPSPIERTISKARGQAHQPSVYVLPPSREELSKNTVSLTCLIKDFFPPDIDVEWQSNGQQEPESKYRTTPPQLDEDGSYFLYSKLSVDKSRWQRGDTFICAVMHEALHNHYTQESLSHSPGK
notes: Homodimer; also called cIL-13Rα2-cFc-YD
B6: cIL-13Rα2-cIgGB-Fc-YTE (Fc fusion)
chain: SMLSNAEIKVNPPQDFEIVDPGYLGYLSLQWQPPLFPDNFKECTIEYELKYRNIDSENWKTIITKNLHYKDGFDLNKGIEAKINTLLPAQCTNGSEVRSSWAETTYWTSPQGNRETKIQDMDCVYYNWQYLVCSWKPGMGVHFDTNYQLFYWYEGLDHSAECTDYIKVNGKNMGCRFPYLESSDYKDFYICVNGSSESQPIRPSYFIFQLQNIVKPMPPDYLSLTVKNSEEINLKWNMPKGPIPAKCFIYEIEFTEDGTTWVTTTVENEIQITRTSNESQKLCFLVRSKVNIYCSDDGIWSEWSDEQCWKGDIWKETPKRENGRVPRPPDCPKCPAPEMLGGPSVFIFPPKPKDTLYITREPEVTCVVVDLDPEDPEVQISWFVDGKQMQTAKTQPREEQFNGTYRVVSVLPIGHQDWLKGKQFTCKVNNKALPSPIERTISKARGQAHQPSVYVLPPSREELSKNTVSLTCLIKDFFPPDIDVEWQSNGQQEPESKYRTTPPQLDEDGSYFLYSKLSVDKSRWQRGDTFICAVMHEALHNHYTQESLSHSPGK
notes: Homodimer; also called cIL-13Rα2-cFc-YTE
B7: cIL-13Rα2-cIgGB-Fc (Fc fusion)
chain: SMLSNAEIKVNPPQDFEIVDPGYLGYLSLQWQPPLFPDNFKECTIEYELKYRNIDSENWKTIITKNLHYKDGFDLNKGIEAKINTLLPAQCTNGSEVRSSWAETTYWTSPQGNRETKIQDMDCVYYNWQYLVCSWKPGMGVHFDTNYQLFYWYEGLDHSAECTDYIKVNGKNMGCRFPYLESSDYKDFYICVNGSSESQPIRPSYFIFQLQNIVKPMPPDYLSLTVKNSEEINLKWNMPKGPIPAKCFIYEIEFTEDGTTWVTTTVENEIQITRTSNESQKLCFLVRSKVNIYCSDDGIWSEWSDEQCWKGDIWKETPKRENGRVPRPPDCPKCPAPEMLGGPSVFIFPPKPKDTLLIARTPEVTCVVVDLDPEDPEVQISWFVDGKQMQTAKTQPREEQFNGTYRVVSVLPIGHQDWLKGKQFTCKVNNKALPSPIERTISKARGQAHQPSVYVLPPSREELSKNTVSLTCLIKDFFPPDIDVEWQSNGQQEPESKYRTTPPQLDEDGSYFLYSKLSVDKSRWQRGDTFICAVMHEALHNHYTQESLSHSPGK
notes: Homodimer; also called cIL-13Rα2-cFc; cIL13Rα2-cFc

What was measured:
canine IL-4 [1] = target: T1, canine IL-4 (canine, UniProt O77762 25-132, biotin-labeled in the Octet assay (site not stated)); experiment: BLI (Octet)
T1 construct: Biotin-labeled and loaded on SA biosensors for the kinetics; unlabeled recombinant protein in the DH82 cell assay; also called cIL-4; canine Interleukin-4
T1 sequence (looked up): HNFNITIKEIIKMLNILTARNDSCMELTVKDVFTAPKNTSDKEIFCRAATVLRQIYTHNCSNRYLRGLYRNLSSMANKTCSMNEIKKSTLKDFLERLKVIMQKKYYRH
Experimental: (§1) The binding constants for the cFc fusion proteins provided in Tables 3 and 4 below, were determined using OCTET® HTX. All kinetics measurements were performed by OCTET® HTX using SA® biosensors and DATA ACQUISITION® 12.0 software. 10 μg/mL of biotin-labeled antigen, either canine IL-4 (cIL-4) or canine IL-13 (cIL-13) were loaded onto the SAR biosensors for 120 seconds. Next, the biosensors were placed into 1×pH 7.0 TBS/Casein buffer for 60 seconds for the blocking phase. For the association phase, antigen loaded biosensors were placed into 2-fold serial dilutions from 1 μM down to 15.6 nM of the wild-type, the bispecific, or the FcRn-mutant receptor Fc-fusions that recognized the cIL-4 or cIL-13 antigen in 1×pH 7.0 TBS/Casein buffer for 30 seconds. The last well was buffer alone and that sensor was used for reference sensor subtraction. Finally, the biosensors were placed into 1×pH 7.0 TBS/Casein buffer for 120 seconds for the dissociation phase. The results were then analyzed using Data Analysis 12.0 software and the curves were fitted using a 1:1 binding model.

canine IL-4 [2] = target: T1, canine IL-4; experiment: BLI (Octet HTX), biotin-cIL-4 on SA biosensors, fusion protein in solution, 1:1 fit
Experimental: as §1

canine IL-13 [3] = target: T2, canine IL-13 (canine, UniProt Q9N0W9 19-131, limits assumed, biotin-labeled in the Octet assay (site not stated)); experiment: cell-based or functional assay
T2 sequence (looked up): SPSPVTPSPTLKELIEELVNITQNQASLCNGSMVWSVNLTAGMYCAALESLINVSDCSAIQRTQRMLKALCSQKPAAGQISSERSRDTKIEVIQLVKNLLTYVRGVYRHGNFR

canine IL-13 [4] = target: T2, canine IL-13; experiment: cell-based or functional assay; remark: listed apart in the source
canine IL-13 [5] = target: T2, canine IL-13; experiment: BLI (Octet); summary table, rounded from Table 4
canine IL-13 [6] = target: T2, canine IL-13; experiment: BLI (Octet HTX), biotin-cIL-13 on SA biosensors, fusion protein in solution, 1:1 fit
Experimental: as §1

canine IL-13 [7] = target: T2, canine IL-13; experiment: BLI (Octet)
Experimental: as §1

Binder	fold change of KD against the unmodified cIL-4Rα-cFc homodimer (canine IL-4 [1]) [fold]	Kd (canine IL-4 [2]) [pM]	koff (canine IL-4 [2]) [s⁻¹]	kon (canine IL-4 [2]) [M⁻¹ s⁻¹]	IL-13 IC50 (inhibition of cIL-13 mediated STAT6 phosphorylation in DH82 cells) (canine IL-13 [3]) [pM]	IL-13 (IC50), summary table (canine IL-13 [4]) [pM]	Kd (canine IL-13 [5]) [pM]	Kd (canine IL-13 [6]) [pM]	koff (canine IL-13 [6]) [s⁻¹]	kon (canine IL-13 [6]) [M⁻¹ s⁻¹]	fold decrease in affinity against unmodified cIL-13Rα1-cFc (canine IL-13 [7]) [fold]	fold decrease of KD against unmodified cIL-13Rα2-cFc (canine IL-13 [7]) [fold]
B1	~100	126	9.88e-05	785000	–	–	–	–	–	–	–	–
B2	~10	11.1	9.23e-06	830000	–	–	–	–	–	–	–	–
B3	–	–	–	–	18400	20000	5000	5370	0.000312	58000	–	–
B4	–	–	–	–	–	–	–	16500	0.0011	66500	~4	–
B5	–	–	–	–	–	–	–	0.44	5.07e-07	1.15e+06	–	~2
B6	–	–	–	–	–	–	–	0.432	5.04e-07	1.17e+06	–	~2
B7	–	–	–	–	165	200	0.7	0.744	7.45e-07	1e+06	–	–
